From paper doi:10.1101/2021.07.31.454597 (bioRxiv, 2021)
Values belong to the molecule of their own block, whether it stands above or below them.

Legend:
[1] = target: Cre^Yang (R72E/L115D/R199D) (UniProt P06956); assay: native MS
cryo-EM structure = target: the molecule itself; assay: cryo-EM structure

- percent of the 2:1 protein:loxP complexes (ion counts) [1]: 36%
Molecule: Cre^Yin (D33A/A36V/R192A) (from UniProt P06956 1-343) (enzyme)

B1: Cre^K201A (enzyme)
chain: MSNLLTVHQNLPALPVDATSDEVRKNLMDMFRDRQAFSEHTWKMLLSVCRSWAAWCKLNNRKWFPAEPEDVRDYLLYLQARGLAVKTIQQHLGQLNMLHRRSGLPRPSDSNAVSLVMRRIRKENVDAGERAKQALAFERTDFDQVRSLMENSDRCQDIRNLAFLGIAYNTLLRIAEIARIRVKDISRTDGGRMLIHIGRTATLVSTAGVEKALSLGVTKLVERWISVSGVADDPNNYLFCRVRKNGVAAPSATSQLSTRALEGIFEATHRLIYGAKDDSGQRYLAWSGHSARVGAARDMARAGVSIPEIMQAGGWTNVNIVMNYIRNLDSETGAMVRLLEDGD
- stoichiometry N (cryo-EM structure): 4
